Measurements from patent EP4019546A1.
Read-outs that look alike come from different tables or passages of the source.

Legend:
human IL-31 (human) [1] = target: human IL-31 (human) (UniProt Q6EBC2); assay: cell-based or functional assay
human IL-31 (human) [2] = target: human IL-31 (human) (UniProt Q6EBC2); assay: competitive ELISA, IL-31RA coated, biotinylated IL-31 preincubated with scFv; competitor IL-31RA
human IL-31 (human) [3] = target: human IL-31 (human) (UniProt Q6EBC2); assay: cell-based or functional assay; remark: listed apart in the source
human IL-31-His (human) [4] = target: human IL-31-His (human) (UniProt Q6EBC2); assay: SPR (Biacore T200), IL-31-His captured via anti-His antibody, scFv as analyte, 1:1 model
Chain of human IL-31-His (human) (Q6EBC2 24-164 limits assumed): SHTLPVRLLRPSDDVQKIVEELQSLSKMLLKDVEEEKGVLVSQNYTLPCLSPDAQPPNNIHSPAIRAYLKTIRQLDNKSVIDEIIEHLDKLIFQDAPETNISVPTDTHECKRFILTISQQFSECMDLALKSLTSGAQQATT

human IL-31-His (human) [5] = target: human IL-31-His (human) (UniProt Q6EBC2); assay: as above; remark: listed apart in the source

Chain of human IL-31 (human) (Q6EBC2 24-164 limits assumed): as above

IC50, neutralization of hIL-31-induced signaling in IL-31RA/OSMR dimerization assay (human IL-31 (human) [1]): 11.1 ng/mL | rel. IC50 (IC50, BMS-981164/IC50, test sample), IL-31RA/OSMR dimerization assay (human IL-31 (human) [1]): 1.16 | IC50 (human IL-31 (human) [2]): 4.58 ng/mL | rel. IC50 (IC50, BMS-981164/IC50, test sample) (human IL-31 (human) [2]): 2.04 | IC50, neutralization of hIL-31-induced signaling in IL-31RA/OSMR dimerization assay (human IL-31 (human) [3]): 8.08 ng/mL | rel. IC50 (IC50, BMS-981164/IC50, test sample), IL-31RA/OSMR dimerization assay (human IL-31 (human) [3]): 0.85 | Kd (human IL-31-His (human) [4]): 1.13 nM | koff (human IL-31-His (human) [4]): 0.000653 s⁻¹ | kon (human IL-31-His (human) [4]): 579000 M⁻¹ s⁻¹ | Kd (human IL-31-His (human) [5]): 0.505 nM | koff (human IL-31-His (human) [5]): 0.000447 s⁻¹ | kon (human IL-31-His (human) [5]): 884000 M⁻¹ s⁻¹
B1: PRO1643 (scFv, from another filing)
scFv: AFQLTQSPSSLSASVGDRVTITCQASQSIDSWLAWYQQKPGKPPKLLIYQASKLASGVPSRFSGSGSGTDYTLTISSLQPEDFATYYCQTYYGGGHIGWGFGTGTKVTVLGGGGGSGGGGSGGGGSGGGGSQSQLVESGGGLVQPGGSLRLSCAASGFSFSANYWICWVRQAPGKGLEWIVCIYIGSRADTYYAPWAKGRFTISKDNSKNTVYLQMNSLRAEDTAVYFCARFSSGIYDLDRFFLWGQGTLVTVSS
